Measurements reported in publication PMC10848425, “Selective enhanced cytotoxicity of amino acid deprivation for cancer therapy using thermozyme functionalized nanocatalyst” (Journal of Nanobiotechnology, 2024).

Key:
Test in all cases: Lineweaver-Burk plot of the Michaelis-Menten equation
[1] = substrate: NC(=O)C[C@H](N)C(=O)O; type: biochemical, Thermococcus litoralis; conditions: 90 °C, pH 9.0, free enzyme
From the text: Lineweaver-Burk plot of the Michaelis-Menten equation on asparaginase Tli10209

[2] = substrate: NC(=O)C[C@H](N)C(=O)O; type: biochemical, Thermus thermophilus; conditions: 80 °C, pH 9.0, free enzyme
From the text: Lineweaver-Burk plot of the Michaelis-Menten equation on asparaginase Ttha0067

[3] = substrate: N=C(N)NCCC[C@H](N)C(=O)O; type: biochemical, Thermococcus litoralis; conditions: 70 °C, pH 10.0, free enzyme
From the text: Lineweaver-Burk plot of the Michaelis-Menten equation on arginase Tli08105

B1: asparaginase Tli10209 (Thermococcus litoralis DSM 5473) (protein)
chain: MSEKRKLERRGAEDMKRILIIGTGGTIASAKTDAGFKSVLTIDEILEKADIKLKNGYEIDTRNILNIDSTLIQPEDWERIAKEVYKALEDYDGIVITHGTDTLAYTASMLTFMIRGINKPVVLTGSMRPVTEEESDAPRNLKAAIRFAMEDVSGIFVAFMDKIMLGCRTSKIRALGLNAFMSINYPDVAYVKGEEVIYNLPQKRFKPKGEPVLDTKYEPRVVFIRLTPGLDGNAIDALVKAGYRGIVLEGYGAGGIPYRKRDILSKIREITPQIPVVMTTQALYDGVDLTKYEVGRKALEAGIIPAKDMTKETTITKLMWALGHTKNVEEVKEIMHTNYADEIEG
notes: recombinant, purified by Ni2+-NTA; free enzyme; expression details in supplement
Q: B1 was tested. Which Km [1] did it give?
A: 4.340 mM

Q: And the kcat [1]?
A: 2080 s⁻¹

Q: And the kcat/Km [1]?
A: 479000 M⁻¹ s⁻¹

B2: asparaginase Ttha0067 (Thermus thermophilus HB8) (protein)
chain: MSAEVLVYRGSLVENRHRVSLALWGPEGLVAYAGDPGRVAYLRSSAKPFQALALYLTGAVERFGLTEEEVALATASHDGTPRHVEVAARFLGKLGLGPEHLVCGVHPPFSREARAALEAQGLAPTPLHHNCSGKHAGMLAAALALGAPAEGYHLPDHPVQRLNLATLEALSGARPGLATDGCSVPTFALSLARAARAFFLLADPGRAPEAYRTPLLRVREAMRRHPDLVAGPGSVDTLLMERLPVVAKRGADGYYGLALLEGPRGPLGVALKVEDGATLAREVAVVALLRALGLDPGKTPWDRPPVRNHRGLEVGHLEARLGLVWV
notes: as for B1
Q: B2 was tested. Which Km [2] did it give?
A: 6.178 mM

Q: And the kcat [2]?
A: 1210 s⁻¹

Q: What about the kcat/Km [2] of the same protein?
A: 196000 M⁻¹ s⁻¹

B3: arginase Tli08105 (Thermococcus litoralis DSM 5473) (protein)
chain: MLFGIPSSKKPNLYILGIPWDNSSSFRRGCAEGPRAIREATSEELYNSFNEELVNLTEHWSYKDLGDIKADTFEELVEKVNAIVRKHYNGELFLFLGGDHSITYATFKAIKEASNEDFGLIYFDAHPDMYPEYDGDEYSHACTVRRLIEEGWVKGENVVQIGVRAPTREQVEFAKEHGVKIISASGIYRSPVIQVPFEKAYLSFDMDVLDPAFAPGVGNPEPGGLSTRELVEVIKSLNVEIIAFDIVELNPKYDYKGISAFAAAKIIREVLGKAAKTK
notes: as for B1
Q: Which results are given for B3?
A: Km [3]: 1.059 mM; Vmax [3]: 961 µM/min; kcat [3]: 1.25 s⁻¹; kcat/Km [3]: 1350 M⁻¹ s⁻¹
